Measured values as given in patent US8114968 (DYAX, dated 2012).

These binders were tested against T1, human MMP-12 (human, UniProt P39900 106-470, limits assumed) (assay: cell-based or functional assay).
T1 sequence (P39900 106-470 limits assumed): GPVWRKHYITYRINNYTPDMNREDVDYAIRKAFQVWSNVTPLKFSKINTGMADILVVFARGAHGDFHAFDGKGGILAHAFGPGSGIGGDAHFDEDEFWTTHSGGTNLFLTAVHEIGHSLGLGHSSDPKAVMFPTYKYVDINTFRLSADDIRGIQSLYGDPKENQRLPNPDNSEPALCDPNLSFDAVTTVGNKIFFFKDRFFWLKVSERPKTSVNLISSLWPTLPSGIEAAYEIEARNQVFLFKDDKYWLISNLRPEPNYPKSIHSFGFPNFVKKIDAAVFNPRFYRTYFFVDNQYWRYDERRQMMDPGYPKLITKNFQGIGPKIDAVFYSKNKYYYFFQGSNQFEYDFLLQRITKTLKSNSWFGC

| Binder | IC50 (nM), large scale purified Fabs | IC50 (nM), IgGs |
| --- | --- | --- |
| 539A-M0013-G12 Fab (Fab, V domains shown) VH: EVQLLESGGGLVQPGGSLRLSCAASGFTFSWYHMFWVRQAPGKGLEWVSGISSSGGYTHYADSVKGRFTISRDNSKNTLYLQMNSLRAEDTAVYYCATREGMLYDYVWGENYMDVWGKGTTVTVSS VL: DIQMTQSPSSLSASVGDRVTITCQASQDTYNRLHWYQQKPGKAPKLLIYDAVNLNRGVPSRFRGSGSGTNYILIITNLQPEDTATYYCQHSDDLSLAFGGGTKVEIK | 6.7 nM |  |
| 539A-M0013-H06 Fab (Fab, V domains shown) VH: EVQLLESGGGLVQPGGSLRLSCAASGFTFSAYEMDWVRQAPGKGLEWVSGISSSGGPTYYADSVKGRFTISRDNSKNTLYLQMNSLRAEDTAVYYCARVGGWELLQDYYYYMDVWGKGTTVTVSS VL: DIQMTQSPATLSLSPGERATLSCRASHSVDNLAWYQQQPGQAPRLLIYDVSYRATGIPARFSGSGSGTDFTLTISSLEPEDFAVYYCQQRNNWPLSLTFGGGTKVEIK | 11.9 nM |  |
| 539A-M0013-D11 Fab (Fab, V domains shown) VH: EVQLLESGGGLVQPGGSLRLSCAASGFTFSSYPMWWVRQAPGKGLEWVSGIVPSGGVTIYADSVKGRFTISRDNSKNTLYLQMNSLRAEDTAVYYCARVGWLASSDYYYYMDVWGKGTTVTVSS VL: DIQMTQSPSSLSASVGDRITISCQASQDIDNYLNWYQQRSGKAPKLLIYDAYNLKAGVPSRFRGSRSGTDFFLTISSLQPEDFATYYCQQSYRAPLTFGGGTKVEIK | 20.3 nM |  |
| 539A-M0016-A11 Fab (Fab, V domains shown) VH: EVQLLESGGGLVQPGGSLRLSCAASGFTFSEYQMAWVRQAPGKGLEWVSSIYPSGGHTHYADSVKGRFTISRDNSKNTLYLQMNSLRAEDTAVYYCAKESYYDFWSGYYFDYWGQGTLVTVSS VL: DIQMTQSPSSLSASVRDRVTITCRTSQNINTYLNWYYQAPGRAPKLLIFGVSSLHRGVSSRFSGSGDGTEFTLTISSLQPEDIGTYFCQQSYSSPWTFGQGTKVEIK | 8.8 nM |  |
| 539A-M0014-C09 IgG (antibody, V domains shown) VH: EVQLLESGGGLVQPGGSLRLSCAASGFTFSDYSMHWVRQAPGKGLEWVSGIGPSGGPTFYADSVKGRFTISRDNSKNTLYLQMNSLRAEDTAVYYCARGEYSSSDYYYYYGMDVWGQGTTVTVSS VL: DIQMTQSPATLSLSPGERATLSCGASQNIDGYYLAWYQQKPGQAPSLLIYDASSRSTGVPDRFSGSGSGTDFTLTISRLEPEDFAVYYCQHYGNSLWTFGQGTKVEIK |  | 43.3 nM |
| 539A-M0014-C09 Fab (Fab, V domains shown) VH: EVQLLESGGGLVQPGGSLRLSCAASGFTFSDYSMHWVRQAPGKGLEWVSGIGPSGGPTFYADSVKGRFTISRDNSKNTLYLQMNSLRAEDTAVYYCARGEYSSSDYYYYYGMDVWGQGTTVTVSS VL: DIQMTQSPATLSLSPGERATLSCGASQNIDGYYLAWYQQKPGQAPSLLIYDASSRSTGVPDRFSGSGSGTDFTLTISRLEPEDFAVYYCQHYGNSLWTFGQGTKVEIK | 36.9 nM |  |
| 539A-M0014-G11 Fab (Fab, V domains shown) VH: EVQLLESGGGLVQPGGSLRLSCAASGFTFSWYVMVWVRQAPGKGLEWVSSIYSSGGPTKYADSVKGRFTISRDNSKNTLYLQMNSLRAEDTAVYYCAKEGGVYGGPELYYYYYGMDVWGQGTTVTVSS VL: QYELTQPPSASGTPGQRITISCSGSSSNLGSNPVQWYQQLPGSAPKLLIHTNTHRPSGVPDRFSGSKSVTSASLAISGLQSEDEAEYYCATWDDSLNGGVFGGGTKLTVL | 35 nM |  |
| 539A-M0014-G11 IgG (antibody, V domains shown) VH: EVQLLESGGGLVQPGGSLRLSCAASGFTFSWYVMVWVRQAPGKGLEWVSSIYSSGGPTKYADSVKGRFTISRDNSKNTLYLQMNSLRAEDTAVYYCAKEGGVYGGPELYYYYYGMDVWGQGTTVTVSS VL: QYELTQPPSASGTPGQRITISCSGSSSNLGSNPVQWYQQLPGSAPKLLIHTNTHRPSGVPDRFSGSKSVTSASLAISGLQSEDEAEYYCATWDDSLNGGVFGGGTKLTVL |  | 12.3 nM |
| 539A-M0016-H05 Fab (Fab, V domains shown) VH: EVQLLESGGGLVQPGGSLRLSCAASGFTFSWYAMSWVRQAPGKGLEWVSRIVPSGGDTGYADSVKGRFTISRDNSKNTLYLQMNSLRAEDTAVYYCATFRGIMYGDYGSSYWYFDLWGRGTLVTVSS VL: DIQMTQSPATLSLSPGERATLSCRASQSVSSYLAWYQQKPGQAPRLLIYDASNRATGIPARFSGSGSGTDFTLTISSLEPEDFAVYYCQQRSNWPLTFGGGTKVEIK | 56.6 nM |  |
| 539A-M0016-H05 IgG (antibody, V domains shown) VH: EVQLLESGGGLVQPGGSLRLSCAASGFTFSWYAMSWVRQAPGKGLEWVSRIVPSGGDTGYADSVKGRFTISRDNSKNTLYLQMNSLRAEDTAVYYCATFRGIMYGDYGSSYWYFDLWGRGTLVTVSS VL: DIQMTQSPATLSLSPGERATLSCRASQSVSSYLAWYQQKPGQAPRLLIYDASNRATGIPARFSGSGSGTDFTLTISSLEPEDFAVYYCQQRSNWPLTFGGGTKVEIK |  | 32.9 nM |

Second part, the binder after the results:

| IC50 (nM), large scale purified Fabs | IC50 (nM), IgGs | Binder |
| --- | --- | --- |
| 24.2 nM |  | 539A-M0022-C07 Fab (Fab, V domains shown) VH: EVQLLESGGGLVQPGGSLRLSCAASGFTFSIYQMWWVRQAPGKGLEWVSSISSSGFTWYADSVKGRFTISRDNSKNTLYLQMNSLRAEDTAVYYCTTEDIGYYYGMDVWGQGTTVTVSS VL: DIQMTQSPATLSVSPGERATLSCRASQNVRNYLAWYQQKPGQAPRLLIYDASKRATGIPARFSGSGSGTDFTLTISGLEPEDFAVYYCQQRSNWPTFGPGTKVDIK |
|  | 13.2 nM | 539A-M0022-C07 IgG (antibody, V domains shown) VH: EVQLLESGGGLVQPGGSLRLSCAASGFTFSIYQMWWVRQAPGKGLEWVSSISSSGFTWYADSVKGRFTISRDNSKNTLYLQMNSLRAEDTAVYYCTTEDIGYYYGMDVWGQGTTVTVSS VL: DIQMTQSPATLSVSPGERATLSCRASQNVRNYLAWYQQKPGQAPRLLIYDASKRATGIPARFSGSGSGTDFTLTISGLEPEDFAVYYCQQRSNWPTFGPGTKVDIK |
| 93 nM |  | 539A-M0019-C05 Fab (Fab, V domains shown) VH: EVQLLESGGGLVQPGGSLRLSCAASGFTFSWYAMVWVRQAPGKGLEWVSYIGSSGGVTGYADSVKGRFTISRDNSKNTLYLQMNSLRAEDTAVYYCARQKRVDYYDSSGYPTNAEFDYWGQGTLVTVSS VL: QYELTQPRSVSGSPGQSVTISCTGSSSDVAGFYYVSWYQQHPGKAPKLMIRDVNDRPSGVSNRFSGSKSGNTASLTIAGLQTEDEAVYYCSSTSRSDTRVIFGGGTKLTV |
|  | 24.5 nM | 539A-M0019-C05 IgG (antibody, V domains shown) VH: EVQLLESGGGLVQPGGSLRLSCAASGFTFSWYAMVWVRQAPGKGLEWVSYIGSSGGVTGYADSVKGRFTISRDNSKNTLYLQMNSLRAEDTAVYYCARQKRVDYYDSSGYPTNAEFDYWGQGTLVTVSS VL: QYELTQPRSVSGSPGQSVTISCTGSSSDVAGFYYVSWYQQHPGKAPKLMIRDVNDRPSGVSNRFSGSKSGNTASLTIAGLQTEDEAVYYCSSTSRSDTRVIFGGGTKLTV |
| 74.8 nM |  | 539A-M0020-B01 Fab (Fab, V domains shown) VH: EVQLLESGGGLVQPGGSLRLSCAASGFTFSHYVMHWVRQAPGKGLEWVSYIGSSGGETRYADSVKGRFTISRDNSKNTLYLQMNSLRAEDTAVYYCARADYGDYDYYYYYGMDVWGQGTTVTVSS VL: QYELTQPPSVSVAPGQTATITCEGNNIASKSVHWYQQKPGQAPVLVVYDDRDRPSGISERISGSNSGNTPTLTIFRVEAGDEADYYCQVSDSATDHRVFGGGTKLTVL |
|  | 34.6 nM | 539A-M0020-B01 IgG (antibody, V domains shown) VH: EVQLLESGGGLVQPGGSLRLSCAASGFTFSHYVMHWVRQAPGKGLEWVSYIGSSGGETRYADSVKGRFTISRDNSKNTLYLQMNSLRAEDTAVYYCARADYGDYDYYYYYGMDVWGQGTTVTVSS VL: QYELTQPPSVSVAPGQTATITCEGNNIASKSVHWYQQKPGQAPVLVVYDDRDRPSGISERISGSNSGNTPTLTIFRVEAGDEADYYCQVSDSATDHRVFGGGTKLTVL |
|  | 23.7 nM | 539A-M0027-E11 IgG (antibody, V domains shown) VH: EVQLLESGGGLVQPGGSLRLSCAASGFTFSHYEMEWVRQAPGKGLEWVSSISSSGGPTMYADSVKGRFTISRDNSKNTLYLQMNSLRAEDTAVYYCARGMYGDYDFYYYYGMDVWGQGTTVTVSS VL: DIQMTQSPDTLSLSPGERGTLSCRASQSLSSSYLAWYQQKPGQAPRLLIYDASSRATGIPDRFSGSGSGTDFTLTIGRLEPEDSAVYYCQQYGSFPLTFGGGTKVEIK |
| 23.9 nM |  | 539A-M0027-E11 Fab (Fab, V domains shown) VH: EVQLLESGGGLVQPGGSLRLSCAASGFTFSHYEMEWVRQAPGKGLEWVSSISSSGGPTMYADSVKGRFTISRDNSKNTLYLQMNSLRAEDTAVYYCARGMYGDYDFYYYYGMDVWGQGTTVTVSS VL: DIQMTQSPDTLSLSPGERGTLSCRASQSLSSSYLAWYQQKPGQAPRLLIYDASSRATGIPDRFSGSGSGTDFTLTIGRLEPEDSAVYYCQQYGSFPLTFGGGTKVEIK |

Molecular target: T1, human MMP-12
Test: cell-based or functional assay
Remark: another data set of the same source

| IC50hu | Binder |
| --- | --- |
| 1.4 nM | 539B-M0065-E12 (Fab, V domains shown) VH: EVQLLESGGGLVQPGGSLRLSCAASGFTFSWYNMHWVRQAPGKGLEWVSGISPSGGNTMYADSVKGRFTISRDNSKNTLYLQMNSLRAEDTAVYYCAKDIRGAYSSGLFDYWGRGTLVTVSS VL: DIQMTQSPSSLSASVGDRVTITCRANQSIYTYLNWYQQKPGKAPELLIYAASSLQSGVPSRFSGSGSGTDFTLTISSLQPEDFATYYCQQAGIFGQGTKLEIK |
| 2.3 nM | 539B-M0069-D10 (Fab, V domains shown) VH: EVQLLESGGGLVQPGGSLRLSCAASGFTFSLYHMHWVRQAPGKGLEWVSGIGPSGGWTIYADSVKGRFTISRDNSKNTLYLQMNSLRAEDTAVYYCAKDIRGAYSSGLFDYWGRGTLVTVSS VL: DIQMTQSPSSLSASVGDRVTITCRANQSIYTYLNWYQQKPGKAPELLIYAASSLQSGVPSRFSGSGSGTDFTLTISSLQPEDFATYYCQQAGIFGQGTKLEIK |
| 3 nM | 539B-M0065-G03 (Fab, V domains shown) VH: EVQLLESGGGLVQPGGSLRLSCAASGFTFSWYGMGWVRQAPGKGLEWVSVIVSSGGFTQYADSVKGRFTISRDNSKNTLYLQMNSLRAEDTAVYYCAKDIRGAYSSGLFDYWGRGTLVTVSS VL: DIQMTQSPSSLSASVGDRVTITCRANQSIYTYLNWYQQKPGKAPELLIYAASSLQSGVPSRFSGSGSGTDFTLTISSLQPEDFATYYCQQAGIFGQGTKLEIK |

These binders were tested against murine MMP-12 (mouse, UniProt P34960 110-473, limits assumed) (assay: cell-based or functional assay).
murine MMP-12, sequence (P34960 110-473 limits assumed): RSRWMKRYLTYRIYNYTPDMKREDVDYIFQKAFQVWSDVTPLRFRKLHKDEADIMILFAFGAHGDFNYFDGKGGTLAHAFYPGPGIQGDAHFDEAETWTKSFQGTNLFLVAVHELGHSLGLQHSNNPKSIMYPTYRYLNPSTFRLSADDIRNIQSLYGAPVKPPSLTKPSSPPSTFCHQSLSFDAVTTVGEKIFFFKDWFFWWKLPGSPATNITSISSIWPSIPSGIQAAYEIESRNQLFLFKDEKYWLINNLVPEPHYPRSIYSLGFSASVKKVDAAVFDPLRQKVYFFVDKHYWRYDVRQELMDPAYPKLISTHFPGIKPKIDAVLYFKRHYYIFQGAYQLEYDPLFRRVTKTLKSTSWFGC

| IC50 m | Binder |
| --- | --- |
| < 10 nM (not printed; inferred) | 539B-M0065-E12 (Fab, V domains shown) VH: EVQLLESGGGLVQPGGSLRLSCAASGFTFSWYNMHWVRQAPGKGLEWVSGISPSGGNTMYADSVKGRFTISRDNSKNTLYLQMNSLRAEDTAVYYCAKDIRGAYSSGLFDYWGRGTLVTVSS VL: DIQMTQSPSSLSASVGDRVTITCRANQSIYTYLNWYQQKPGKAPELLIYAASSLQSGVPSRFSGSGSGTDFTLTISSLQPEDFATYYCQQAGIFGQGTKLEIK |
| < 10 nM (not printed; inferred) | 539B-M0069-D10 (Fab, V domains shown) VH: EVQLLESGGGLVQPGGSLRLSCAASGFTFSLYHMHWVRQAPGKGLEWVSGIGPSGGWTIYADSVKGRFTISRDNSKNTLYLQMNSLRAEDTAVYYCAKDIRGAYSSGLFDYWGRGTLVTVSS VL: DIQMTQSPSSLSASVGDRVTITCRANQSIYTYLNWYQQKPGKAPELLIYAASSLQSGVPSRFSGSGSGTDFTLTISSLQPEDFATYYCQQAGIFGQGTKLEIK |
| < 10 nM (not printed; inferred) | 539B-M0065-G03 (Fab, V domains shown) VH: EVQLLESGGGLVQPGGSLRLSCAASGFTFSWYGMGWVRQAPGKGLEWVSVIVSSGGFTQYADSVKGRFTISRDNSKNTLYLQMNSLRAEDTAVYYCAKDIRGAYSSGLFDYWGRGTLVTVSS VL: DIQMTQSPSSLSASVGDRVTITCRANQSIYTYLNWYQQKPGKAPELLIYAASSLQSGVPSRFSGSGSGTDFTLTISSLQPEDFATYYCQQAGIFGQGTKLEIK |
